Key:
[1] = Luminescence activity of ZZ-fused WNanoKAZ mutants in crude enzyme solution (Example 10); format: biochemical; settings: coelenterazine substrate; for Relative luminescence activity (Imax): ZZ-fused, pCold-ZZ-P- vector in E. coli, KAZ = 1.0
Method: In order to express ZZ-fused KAZ mutants in E. coli, the recombinant plasmid produced in EXAMPLE 8 and pCold-ZZ-P-WNanoKAZ produced in EXAMPLE 1 were used. The crude enzyme solution was prepared in a manner similar to EXAMPLE 2, using the E. coli BL21 strain (Novagen, Madison, Wis.) as a host cell. Then, 5 μL of the crude enzyme solution obtained was subjected to SDS-PAGE analysis to confirm the protein expression in all mutants. In FIG. 1, M and 1 to 8 represent as follows. M: molecular weight size markers; 1: ZZ-P-KAZ; 2: ZZ-P-WNanoKAZ; 3: ZZ-P-WNanoKAZ-V90I; 4: ZZ-P-WNanoKAZ-E115P; 5: ZZ-P-WNanoKAZ-K124Q; 6: ZZ-P-WNanoKAZ-I138Y; 7: ZZ-P-WNanoKAZ-R166N; 8: ZZ-P-dnKAZ. It was confirmed from FIG. 1 that all mutants were expressed.
(§1) DTT was added to the crude enzyme solution obtained in EXAMPLE 9 at a final concentration of 1 mM, and then allowed to stand in an ice-water bath over 8 hours or more. After 1 μL of the crude enzyme solution was added to 100 μL of 30 mM Tris-HCl (pH 7.6)-10 mM EDTA (Wako Pure Chemical Industries, Ltd.) containing 1 μg of coelenterazine (manufactured by JNC Corp.), a luminescence reaction was started. Luminescence activity was measured for 60 seconds using a luminometer (manufactured by Atto Inc.: AB2200). The maximum intensity of luminescence (Imax) was given as a relative luminescence activity (rlu).

[2] = Substrate specificity of WNanoKAZ mutants, crude enzyme solution (Example 11); format: biochemical; settings: for Relative luminescence activity, 6h-CTZ, Imax / Relative luminescence activity, 6h-CTZ, Int.: substrate 6h-CTZ; for Relative luminescence activity, 6h-f-CTZ, Imax / Relative luminescence activity, 6h-f-CTZ, Int.: substrate 6h-f-CTZ; for Relative luminescence activity, CTZ, Imax / Relative luminescence activity, CTZ, Int.: substrate CTZ
Method: as §1
Each of the coelenterazine analogues used for substrate specificity studies was synthesized by the methods described in publications. Specifically, bis-coelenterazine was synthesized by the method described in Nakamura et al. (1997) Tetrahedron Lett. 38: 6405-6406, furimazine by the method described in Hall et al. (2012) ACS Chem. Biol. […], and, 6h-coelenterazine, f-coelenterazine and 6h-f-coelenterazine by the method described in Inouye et al (2013) Biochem. Biophys. Res. Commun. 437: 23-28. Luminescence activity was measured by the same method as in EXAMPLE 10, using the crude enzyme solution obtained in EXAMPLE 10, in which coelenterazine or its analogue was used as the luminescence substrate.

CHO-K1 cells [3] = experiment: Luminescence activity of WNanoKAZ mutants expressed by secretory expression vectors in animal culture cells (Example 13); format: cell-based, Chinese hamster; settings: pcDNA3-GLsp- secretory vector, coelenterazine substrate
Method: (§2) Chinese hamster ovary cell line CHO-K1 was cultured in Ham's F-12 medium (manufactured by Wako Pure Chemical Industries, Ltd.) supplemented with 10% (v/v) fetal bovine serum (manufactured by Biowest Inc.). The CHO-K1 cells were seeded in a 6-well plate in 1×10^5 cells/well/2 mL medium (n=2) and cultured in an incubator at 37° C. in 5% (v/v) CO2. After 24 hours, the purified recombinant plasmid was transfected to CHO-K1 cells using a FuGene HD transfection kit (manufactured by Promega Corp.) and the cells were used for subsequent experiment. Specifically, 1 μg of the recombinant plasmid, 0.1 μg of the internal standard vector pGL4.13 [Luc2/sv40] and 3 μL of FuGene HD were added to 100 μL of the medium and allowed to stand at room temperature for 15 minutes. Subsequently, 100 μL of the DNA-FuGene complex solution was added to the cells in the 6-well plate. After incubation for 46 hours, the culture medium was collected. On the other hand, the KAZ mutant expressed in the cells was washed 3 times with 3 mL of 1×PBS, then suspended in 1 mL of 1×PBS and disrupted by sonication on ice. The resultant cell extract of WNanoKAZ was used as the enzyme solution.
(§3) After adding 5 μL of the culture medium and cell extract obtained in EXAMPLE 5 to 100 μL of 30 mM Tris-HCl (pH 7.6)-10 mM EDTA (Wako Pure Chemical Industries, Ltd.) containing 1 μg of coelenterazine (manufactured by JNC Corp.), a luminescence reaction was started. Luminescence activity was measured for 60 seconds using a luminometer (manufactured by Atto Inc.: AB2200). The maximum intensity of luminescence (Imax) was given as a percentage (%).
The recombinant plasmid obtained in EXAMPLE 12 or 4 was purified in a manner similar to EXAMPLE 5 and dissolved in sterile water. The firefly luciferase vector (pGL4.13 [Luc2/sv40]: manufactured by Promega Corp.) was similarly prepared and used as an internal standard.
Culture medium containing two amino acid-substituted KAZ mutants and three amino acid-substituted KAZ mutants and cell extracts of the KAZ mutants as the enzyme solutions were prepared by the same procedure as in EXAMPLE 9.
The resultant culture medium and cell extracts were used to measure luminescence activity as in EXAMPLE 6.

CHO-K1 cells [4] = experiment: Luminescence activity of KAZ mutants expressed in animal cultured cells, culture medium and cell extract (Example 6); format: cell-based, Chinese hamster; settings: pcDNA3-GLsp- vector in CHO-K1, coelenterazine substrate
Method: as §2, §3

[5] = Luminescence activity of WNanoKAZ in crude enzyme solution (Example 3); format: biochemical; settings: for Relative luminescence activity (Imax): pCold-ZZ-P- vector in E. coli, KAZ = 1.0
Method: In order to express WNanoKAZ in E. coli, pCold-ZZ-P-WNanoKAZ obtained in EXAMPLE 1 was used. The E. coli BL21 strain (Novagen, Madison, Wis.) was used as a host cell. The BL21 strain carrying the recombinant plasmid was incubated in 5 mL of Luria-Bertani medium (hereinafter designated as LB medium) containing ampicillin (50 μg/mL) at 37° C. for 17 hours. The seed culture of 0.1 mL was inoculated to 10 mL of LB medium and incubated for 3 hours, followed by cooling in freezing water for 1 hour. IPTG was added to the culture medium at a final concentration of 0.1 mM, followed by incubation at 15° C. for further 19 hours. After completion of the incubation, 1 mL of the culture medium was collected by centrifugation at 10,000 rpm for 2 minutes. The collected E. coli cells were suspended in 0.5 mL of 30 mM Tris-HCl (pH 7.6)-10 mM EDTA. The cells were disrupted by sonication for 3 seconds using a Branson Model 250 Sonifire (Danbury, Conn.) to give a crude enzyme solution. Then, DTT was added to the crude enzyme solution at a final concentration of 1 mM. After the mixture was allowed to stand in freezing water over 8 hours or more, the luminescence activity was measured.
1 μl of the crude enzyme solution obtained in EXAMPLE 2 was added to 100 μl of 30 mM Trix-HCl (pH 7.6)-10 mM EDTA (Wako Pure Chemical Industries, Ltd.) containing 1 μg of coelenterazine (manufactured by JINC Corp.), luminescence reaction was started. Luminescence activity was measured for 60 seconds using a luminometer (manufactured by Atto Inc.: AB2200); the maximum intensity of luminescence (Imax) was given as a relative luminescence activity.

[6] = crude enzyme solution, coelenterazine substrate

Row | Molecule | Relative luminescence activity (Imax) [1] | Relative luminescence activity, Furimazine, Imax [2] | Relative luminescence activity, bis-CTZ, Imax [2] | Relative luminescence activity, f-CTZ, Imax [2] | Relative luminescence activity, h-CTZ, Imax [2] | Relative luminescence activity, Furimazine, Int. [2] | Relative luminescence activity, bis-CTZ, Int. [2] | Relative luminescence activity, f-CTZ, Int. [2] | Relative luminescence activity, h-CTZ, Int. [2] | Relative luminescence activity, 6h-CTZ, Imax [2] | Relative luminescence activity, 6h-CTZ, Int. [2] | Relative luminescence activity, 6h-f-CTZ, Imax [2] | Relative luminescence activity, 6h-f-CTZ, Int. [2] | Relative luminescence activity, CTZ, Imax [2] | Relative luminescence activity, CTZ, Int. [2] | Relative luminescence activity (%, Imax) Cell extracts (CHO-K1 cells [3]) [%] | Relative luminescence activity (%, Imax) Culture medium (CHO-K1 cells [3]) [%] | Relative luminescence activity (%, Imax) Cell extracts (CHO-K1 cells [4]) [%] | Relative luminescence activity (%, Imax) Culture medium (CHO-K1 cells [4]) [%] | Relative luminescence activity (Imax) [5, 6] | other results
1 | WNanoKAZ: chimeric protein: positions 1-82 of native KAZ and 83-169 of nanoKAZ; SEQ ID NO: 6; I90V, P115E, Q124K, Y138I, N166R (protein, chimeric protein: positions 1-82 of native KAZ and 83-169 of nanoKAZ; I90V, P115E, Q124K, Y138I, N166R) FTLADFVGDWQQTAGYNQDQVLEQGGLSSLFQALGVSVTPIQKVVLSGENGLKADIHVIIPYEGLSGFQMGLIEMIFKVVYPVDDHHFKVILHYGTLVIDGVTPNMIDYFGRPYEGIAVFDGKKITVTGTLWNGNKIIDERLINPDGSLLFRVTINGVTGWRLCERILA | 64 | 26 | 32 | 48 | 64 | 29 | 24 | 32 | 33 | 8.9 | 7.5 | 41 | 34 | 64 | 56 | 22 | <0.01 | 22 | <0.01 | 64 | fold higher activity than native KAZ ([1]; Imax): 64 fold; fold higher activity than the relative activity 7.4 of dnKAZ ([1]; Imax): 8.6 fold; fold higher activity than the other coelenterazine analogues when coelenterazine was used as the substrate ([2]; coelenterazine substrate): 8.6 fold; fold higher activity than that of dnKAZ ([5]; coelenterazine used as the substrate, as shown in EXAMPLE 3): 64 fold; fold higher activity than native KAZ ([5]; crude enzyme solution, coelenterazine substrate, Imax): 64 fold
2 | KAZ: 19 kDa protein of native Oplophorus luciferase having luminescence activity; SEQ ID NO: 2 (protein, listed as Oplophorus gracilirostris) FTLADFVGDWQQTAGYNQDQVLEQGGLSSLFQALGVSVTPIQKVVLSGENGLKADIHVIIPYEGLSGFQMGLIEMIFKVVYPVDDHHFKIILHYGTLVIDGVTPNMIDYFGRPYPGIAVFDGKQITVTGTLWNGNKIYDERLINPDGSLLFRVTINGVTGWRLCENILA | 1.0 | 0.2 | 0.5 | 1.0 | 1.2 | 0.3 | 0.1 | 0.9 | 0.9 | 0.08 | 0.1 | 0.3 | 0.4 | 1.0 | 1.0 | 0.2 | 0.1 | 0.2 | 0.1 | 1.0 | 
